Source: patent publication US20110206658A1 (published 2011)

B1: anti-cyno CD79b (10D10)-SMCC-DM1 (antibody, V domains shown)
VH: EVQLQESGPGLVKPSQSLSLTCTVTGYSITSDYAWNWIRQFPGNKLEWMGNIWYSGSTTYNPSLKSRISITRDTSKNQFFLQLNSVTSEDTATYYCSRMDFWGQGTTLTVSS
VL: DIVLTQSPPSLAVSLGQRATISCRASESVDSYGKTFMHWHQQKPGQPPKLLIYRVSNLESGIPARFSGSGSRTDFTLTINPVEADDVATYYCQQSNEDPFTFGGGTKLEIKR
modifications: DM1 linked through SMCC to the epsilon-amino group of lysines; drug to antibody ratio typically 3 to 4
B2: anti-cyno CD79b (10D10)-MC-MMAF (antibody, V domains shown)
VH: EVQLQESGPGLVKPSQSLSLTCTVTGYSITSDYAWNWIRQFPGNKLEWMGNIWYSGSTTYNPSLKSRISITRDTSKNQFFLQLNSVTSEDTATYYCSRMDFWGQGTTLTVSS
VL: DIVLTQSPPSLAVSLGQRATISCRASESVDSYGKTFMHWHQQKPGQPPKLLIYRVSNLESGIPARFSGSGSRTDFTLTINPVEADDVATYYCQQSNEDPFTFGGGTKLEIKR
modifications: MMAF linked through the cysteine by the maleimidocaproyl (MC) linker; sites and load not stated

Tests used:
human CD79b (TAHO5) = biological target: T1, human CD79b (TAHO5) (human, UniProt P40259 29-229); test: cell-based or functional assay
T1 sequence: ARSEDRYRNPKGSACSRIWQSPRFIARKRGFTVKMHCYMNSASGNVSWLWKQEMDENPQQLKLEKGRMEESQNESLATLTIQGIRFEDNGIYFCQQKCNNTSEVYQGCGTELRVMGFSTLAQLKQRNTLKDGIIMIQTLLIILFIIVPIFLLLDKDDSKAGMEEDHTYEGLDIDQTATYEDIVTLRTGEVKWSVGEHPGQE

[1] = biological target: T2, cynomolgus CD79b (TAHO40) (cynomolgus monkey); test: cell-based or functional assay
T2 chain: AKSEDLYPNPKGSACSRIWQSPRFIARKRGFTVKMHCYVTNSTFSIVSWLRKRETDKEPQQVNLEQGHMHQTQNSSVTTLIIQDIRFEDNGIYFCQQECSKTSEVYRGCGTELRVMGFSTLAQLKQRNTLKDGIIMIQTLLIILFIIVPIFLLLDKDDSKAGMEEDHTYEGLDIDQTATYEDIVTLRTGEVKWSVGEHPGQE

Binder	IC50 of tumor cell killing (CellTiter-Glo), non-transfected BJAB cells (human CD79b (TAHO5))	IC50 of tumor cell killing (CellTiter-Glo), BJAB-cyno CD79b cells [1]
B1	10 nM	0.33 nM
B2	694 nM	0.07 nM
